Tests used:
purified αIIbβ3 integrin = target: T1, purified αIIbβ3 integrin (Homo sapiens (assumed), UniProt P08514;P05106); assay: SPR; Biacore 3000; αIIbβ3 amine-coupled on CM5 (about 8000 RU); scFv injected at 94, 188 and 390 nM; HBS-EP with 2 mM Ca2+; 20 μL/min; details: both partners purified
T1 construct: integrin αIIb (CD41) subunit of purified αIIbβ3; integrin β3 subunit of purified αIIbβ3; probably from human platelets (surmise); also called integrin αIIbβ3; source: bought: Kordia Life Sciences

[1] = target: T2, αIIbβ3 integrin on human platelets (Homo sapiens, UniProt P08514;P05106); assay: flow cytometry on cells; washed human platelets activated with 0.5 U/ml thrombin, PFA-fixed; 25 μg/mL TEG4-2c scFv overnight at 4°C; detected with Alexa Fluor 488 anti-6His; details: one partner purified
T2 construct: integrin αIIb (CD41), human, on platelets; integrin β3, human, on platelets; the state is told by the assay; also called A-PL; NA-PL; source: endogenous, human platelets (washed platelets and platelet-rich plasma from healthy donors; platelets in human coronary artery sections)

[2] = target: T3, αIIbβ3 integrin on lyophilized platelets (Homo sapiens (assumed), UniProt P08514;P05106); assay: BLI; Octet Red96; TEG4-2c scFv loaded on HIS2 (anti-penta-His) sensor at 21 μg/mL; platelets 5x10^5 to 5x10^8/mL (αIIbβ3 42 pM to 42 nM) as analyte; platelet buffer; details: one partner purified
T3 construct: integrin αIIb (CD41) on lyophilized platelets; integrin β3 on lyophilized platelets; Platelet concentrations were converted into αIIbβ3 molarities with 50 000 αIIbβ3 per platelet; also called whole platelets; blood platelets; source: bought: lyophilized platelets, Helena Biosciences Europe, resuspended

[3] = target: T4, αIIbβ3 integrin on murine platelets in atherosclerotic aorta sections (Mus musculus, ApoE-/-, UniProt Q9QUM0;O54890); assay: immunostaining of cells or tissue; paraffin sections of atherosclerotic arteries of mouse, rabbit and human; scFv 20-40 μg/ml overnight at 4°C; detected with HRP anti-6His and DAB; details: one partner purified
T4 construct: integrin αIIb (CD41), mouse, on platelets in tissue; integrin β3, mouse, on platelets in tissue; source: endogenous, paraffin sections of aorta of ApoE-/- mice

[4] = target: T5, αIIbβ3 integrin of rabbit platelets in aorta (Oryctolagus cuniculus, New Zealand, UniProt Q9TUN4;Q9TUN3); assay: as above; details: one partner purified
T5 construct: integrin αIIb (CD41), rabbit, endogenous in aorta tissue; integrin β3, rabbit, endogenous in aorta tissue; In the ELISA the integrin stood within solubilised aorta proteins (T-PER or HSB lysis buffer), not on cells; also called atheromatous proteins; healthy aorta proteins; source: endogenous, New Zealand rabbit aorta (paraffin sections; soluble protein extracts of atheromatous and healthy aorta)

Measured: binding result

T4 sequence (Q9QUM0 32-1033, chain 1 of 2): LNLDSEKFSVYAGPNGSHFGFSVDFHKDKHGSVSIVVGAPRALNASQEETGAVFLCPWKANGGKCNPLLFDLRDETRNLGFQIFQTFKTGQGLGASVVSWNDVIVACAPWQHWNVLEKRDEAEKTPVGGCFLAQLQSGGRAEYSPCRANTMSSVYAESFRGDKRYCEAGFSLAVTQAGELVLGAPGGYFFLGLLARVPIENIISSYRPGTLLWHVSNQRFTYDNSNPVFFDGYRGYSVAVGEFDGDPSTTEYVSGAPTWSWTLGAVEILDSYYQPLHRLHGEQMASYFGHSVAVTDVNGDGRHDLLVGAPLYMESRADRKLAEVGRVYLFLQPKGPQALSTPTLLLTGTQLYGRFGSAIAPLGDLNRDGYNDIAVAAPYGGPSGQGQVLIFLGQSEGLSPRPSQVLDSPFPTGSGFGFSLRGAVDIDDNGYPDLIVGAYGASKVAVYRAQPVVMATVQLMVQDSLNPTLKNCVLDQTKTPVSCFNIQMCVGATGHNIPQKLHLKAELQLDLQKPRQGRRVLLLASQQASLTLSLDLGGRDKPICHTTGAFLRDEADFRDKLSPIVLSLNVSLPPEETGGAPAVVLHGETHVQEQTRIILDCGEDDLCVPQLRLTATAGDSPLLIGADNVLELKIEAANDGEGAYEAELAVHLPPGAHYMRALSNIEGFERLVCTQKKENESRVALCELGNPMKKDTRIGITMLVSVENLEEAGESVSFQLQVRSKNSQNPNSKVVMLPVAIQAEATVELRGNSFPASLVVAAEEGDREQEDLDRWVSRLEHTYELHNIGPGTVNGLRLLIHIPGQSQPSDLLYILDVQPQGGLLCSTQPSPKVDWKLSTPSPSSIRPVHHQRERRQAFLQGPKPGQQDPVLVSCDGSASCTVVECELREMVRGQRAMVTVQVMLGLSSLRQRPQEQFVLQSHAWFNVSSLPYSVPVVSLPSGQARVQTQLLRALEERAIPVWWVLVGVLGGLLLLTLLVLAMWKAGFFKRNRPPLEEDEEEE
T4 sequence (O54890 26-787, chain 2 of 2): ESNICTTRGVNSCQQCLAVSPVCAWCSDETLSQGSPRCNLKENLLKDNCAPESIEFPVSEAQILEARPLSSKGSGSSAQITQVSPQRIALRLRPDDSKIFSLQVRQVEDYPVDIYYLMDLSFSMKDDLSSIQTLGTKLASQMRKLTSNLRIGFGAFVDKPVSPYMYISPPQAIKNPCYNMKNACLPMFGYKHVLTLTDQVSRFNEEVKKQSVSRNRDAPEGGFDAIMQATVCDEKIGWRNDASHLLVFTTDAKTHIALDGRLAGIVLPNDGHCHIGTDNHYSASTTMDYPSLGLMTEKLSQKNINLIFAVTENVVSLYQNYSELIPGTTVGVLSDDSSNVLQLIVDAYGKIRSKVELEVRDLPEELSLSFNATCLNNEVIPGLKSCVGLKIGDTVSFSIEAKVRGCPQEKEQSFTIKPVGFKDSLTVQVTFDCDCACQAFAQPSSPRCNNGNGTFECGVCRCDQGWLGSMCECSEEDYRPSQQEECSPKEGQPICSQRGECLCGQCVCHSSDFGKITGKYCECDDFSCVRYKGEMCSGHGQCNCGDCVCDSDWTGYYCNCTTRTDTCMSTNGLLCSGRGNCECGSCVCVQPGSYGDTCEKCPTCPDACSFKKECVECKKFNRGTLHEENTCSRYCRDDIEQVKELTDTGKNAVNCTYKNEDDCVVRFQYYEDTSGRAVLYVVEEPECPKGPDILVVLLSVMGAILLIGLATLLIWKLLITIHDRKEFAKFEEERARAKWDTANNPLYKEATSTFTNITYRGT
T1 sequence (P08514 32-1039, chain 1 of 2): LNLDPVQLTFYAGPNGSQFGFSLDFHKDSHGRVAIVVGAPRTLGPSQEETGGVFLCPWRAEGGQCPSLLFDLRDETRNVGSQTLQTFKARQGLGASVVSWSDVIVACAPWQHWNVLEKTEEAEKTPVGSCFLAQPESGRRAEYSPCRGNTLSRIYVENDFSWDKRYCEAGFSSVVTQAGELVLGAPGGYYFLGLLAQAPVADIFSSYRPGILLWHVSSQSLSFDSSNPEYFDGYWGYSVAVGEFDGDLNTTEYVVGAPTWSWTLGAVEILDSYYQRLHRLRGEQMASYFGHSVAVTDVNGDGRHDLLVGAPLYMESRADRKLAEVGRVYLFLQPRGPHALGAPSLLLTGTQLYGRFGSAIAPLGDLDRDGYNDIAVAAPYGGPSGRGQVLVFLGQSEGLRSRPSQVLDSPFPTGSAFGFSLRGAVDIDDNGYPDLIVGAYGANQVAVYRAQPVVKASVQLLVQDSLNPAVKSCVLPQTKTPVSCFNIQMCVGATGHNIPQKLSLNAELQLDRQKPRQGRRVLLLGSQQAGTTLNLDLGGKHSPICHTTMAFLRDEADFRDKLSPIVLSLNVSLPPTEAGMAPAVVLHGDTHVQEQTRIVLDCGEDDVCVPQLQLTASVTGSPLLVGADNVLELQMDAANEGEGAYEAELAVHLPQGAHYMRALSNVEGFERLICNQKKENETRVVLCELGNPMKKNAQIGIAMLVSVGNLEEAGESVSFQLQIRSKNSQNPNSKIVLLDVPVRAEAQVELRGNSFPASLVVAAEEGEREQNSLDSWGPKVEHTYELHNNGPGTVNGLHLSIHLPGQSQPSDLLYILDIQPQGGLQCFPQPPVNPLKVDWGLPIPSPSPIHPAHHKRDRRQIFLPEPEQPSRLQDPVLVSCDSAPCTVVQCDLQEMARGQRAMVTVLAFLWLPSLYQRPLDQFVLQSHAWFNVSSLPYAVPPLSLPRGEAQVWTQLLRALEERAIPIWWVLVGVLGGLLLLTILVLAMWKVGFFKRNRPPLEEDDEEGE
T1 sequence (P05106 27-718, chain 2 of 2): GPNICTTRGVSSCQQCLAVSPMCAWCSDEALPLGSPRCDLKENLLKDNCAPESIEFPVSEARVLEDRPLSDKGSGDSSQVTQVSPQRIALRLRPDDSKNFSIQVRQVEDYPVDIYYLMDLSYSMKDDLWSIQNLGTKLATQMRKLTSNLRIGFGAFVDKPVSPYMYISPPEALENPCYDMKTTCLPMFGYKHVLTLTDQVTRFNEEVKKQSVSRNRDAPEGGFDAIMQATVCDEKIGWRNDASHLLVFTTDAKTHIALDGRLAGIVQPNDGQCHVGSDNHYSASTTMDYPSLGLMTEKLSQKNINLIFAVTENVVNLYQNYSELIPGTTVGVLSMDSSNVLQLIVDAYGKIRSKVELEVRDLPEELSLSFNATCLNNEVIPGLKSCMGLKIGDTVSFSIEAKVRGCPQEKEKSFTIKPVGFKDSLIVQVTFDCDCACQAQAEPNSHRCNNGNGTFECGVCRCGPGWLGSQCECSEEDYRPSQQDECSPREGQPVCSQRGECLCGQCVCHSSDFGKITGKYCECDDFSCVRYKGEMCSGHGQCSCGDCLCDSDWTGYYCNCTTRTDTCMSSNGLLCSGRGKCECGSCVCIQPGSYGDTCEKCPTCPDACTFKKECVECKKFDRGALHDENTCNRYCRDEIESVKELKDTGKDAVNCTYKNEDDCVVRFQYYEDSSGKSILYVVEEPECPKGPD
T2 sequence (P08514 32-1039, chain 1 of 2): as the sequence (P08514 32-1039, chain 1 of 2) above
T2 sequence (P05106 27-788, chain 2 of 2): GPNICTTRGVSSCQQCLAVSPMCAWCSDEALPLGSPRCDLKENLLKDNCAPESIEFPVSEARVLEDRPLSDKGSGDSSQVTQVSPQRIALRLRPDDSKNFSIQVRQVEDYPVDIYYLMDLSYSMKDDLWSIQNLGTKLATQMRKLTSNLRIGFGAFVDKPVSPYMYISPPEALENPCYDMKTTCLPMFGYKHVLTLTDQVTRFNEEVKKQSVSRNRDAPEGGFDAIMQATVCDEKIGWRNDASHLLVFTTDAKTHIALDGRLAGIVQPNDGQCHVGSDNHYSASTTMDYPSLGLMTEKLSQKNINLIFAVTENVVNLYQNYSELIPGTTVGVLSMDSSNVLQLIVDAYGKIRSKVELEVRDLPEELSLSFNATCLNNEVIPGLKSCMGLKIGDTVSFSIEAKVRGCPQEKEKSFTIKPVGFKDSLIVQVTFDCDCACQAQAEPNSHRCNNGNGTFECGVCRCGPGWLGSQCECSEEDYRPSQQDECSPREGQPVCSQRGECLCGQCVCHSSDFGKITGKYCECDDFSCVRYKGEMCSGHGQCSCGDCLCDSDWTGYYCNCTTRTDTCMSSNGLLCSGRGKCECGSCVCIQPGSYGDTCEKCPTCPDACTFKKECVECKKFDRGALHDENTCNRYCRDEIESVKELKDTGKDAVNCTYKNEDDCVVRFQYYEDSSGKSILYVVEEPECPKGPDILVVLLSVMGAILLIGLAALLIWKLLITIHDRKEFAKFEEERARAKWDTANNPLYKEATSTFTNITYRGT
T3 sequence (P08514 32-1039, chain 1 of 2): as the sequence (P08514 32-1039, chain 1 of 2) above
T3 sequence (P05106 27-788, chain 2 of 2): as the sequence (P05106 27-788, chain 2 of 2) above

B1: TEG4-2c scFv (recombinant human anti-αIIbβ3 single-chain variable fragment with 6His-Gly-Cys-Cys C-terminus) (scFv, V domains shown)
VH: QVQLVESGGGVVQPGRSLRLSCAASGFTFSSYAMHWVRQAPGKGLEWVAVISYDGSNKYYADSVKGRFTISRDNSKNTLYLQMNSLRAEDTAVYYCARKSYFDYWGQGTLVTVSS
VL: VSELTQPASVSGSPGQSITISCTGTSSDVGGYNYVSWYQQHPGKAPKLMIYEVSNRPSGVSNRFSGSKSGNTASLTISGLQAEDEADYYCSSYTSSSTLVVFGGGTKLTVL
notes: Gly-Cys-Cys added after the 6His tag at the very C-terminus (printed in three-letter code as 'Gly-Cyc-Cys'), for site-specific grafting; Order at the C-terminus: scFv, c-myc tag, 6His, Gly-Cys-Cys; Purified fractions are said to hold monomers and dimers; also called scFv TEG4-2c; anti-αIIbβ3 TEG4-2c scFv; source: Pichia pastoris X33, secreted into the supernatant, purified (IMAC HisTrap excel, …)
binds: all assays above

Reference: paper PMC5268420 (PLoS ONE, 2017)
